Values belong to the binder of their own block, whether it stands above or below them. Ends that are not written are not given here.
Columns and labels:
[1] = target: T1, ApoC3 peptide S62M (human, thioether (positions not given here); also: cyclic (thioether), ring places not given here); experiment: cyclic peptide substitution array
T1 peptide: DKFMEFWDLDPEV
Description: (§1) S62 and D68 of mature huApoC3 were also highly conserved; substitution of S62 by A or V, and substitution of D68 by E or P, caused decrease of spot intensities by ˜60% or higher. […] Amino acid F64 was completely variable.
(§2) Pre: staining of one of the ApoC3 peptide microarrays was done with the secondary antibody goat anti-human IgG (Fe) DyLight680 (1:5000) and control antibody mouse monoclonal anti-HA (12CA5) DyLight800 (1:2000) to investigate background interactions of the secondary antibody with the antigen-derived peptides that could interfere with the main assays. Subsequent incubation of other ApoC3 peptide microarrays with antibody samples was followed by staining with secondary and control antibodies as well as read-out at scanning intensities of 7/7 (red/green). The additional HA peptides framing the peptide arrays were stained as internal quality control to confirm the assay quality and the peptide microarray integrity.

[2] = target: T2, ApoC3 peptide V71S (human, not fully specified; cyclic (thioether)); experiment: cyclic peptide substitution array
T2 peptide: DKFSEFWDLDPES
Description: as §1, §2

[3] = target: T3, ApoC3 peptide W65Y (human, cyclic (thioether)); experiment: cyclic peptide substitution array
T3 peptide: DKFSEFYDLDPEV
Description: as §1, §2

[4] = target: T4, ApoC3 peptide … L50A (human, not fully specified; cyclic constrained); experiment: peptide microarray
T4 peptide: ARGWVTDGFSSAK
Outline: (§3)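 Peptide microarrays of ApoC3-derived peptides incubated with antibody samples, then stained with goat anti-human IgG (Fc) DyLight680 (1:5000) and anti-HA DyLight800 (1:2000) control. Read-out by fluorescence scanning at intensities 7/7 (red/green); a secondary-only pre-stain checked background, HA frame peptides served as quality control.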

[5] = target: T5, ApoC3 peptide … K51A (human, thioether (positions not given here); also: cyclic constrained); experiment: peptide microarray
T5 peptide: ARGWVTDGFSSLA
Outline: as §3

[6] = target: T6, ApoC3 peptide … D45C (human, not fully specified (bridges); also: cyclic constrained); experiment: peptide microarray
T6 peptide: ARGWVTCGFSSLK
Outline: as §3

[7] = target: T7, ApoC3 peptide … G41E (human, also: cyclic constrained); experiment: peptide microarray
T7 peptide: AREWVTDGFSSLK
Outline: as §3

[8] = target: T8, ApoC3 peptide … T44E (human, not fully specified (bridges); also: cyclic constrained); experiment: peptide microarray
T8 peptide: ARGWVEDGFSSLK
Outline: as §3

[9] = target: T9, ApoC3 peptide … G46E (human, not fully specified (bridges); also: cyclic constrained); experiment: peptide microarray
T9 peptide: ARGWVTDEFSSLK
Outline: as §3

[10] = target: T10, ApoC3 peptide … L50F (human, not fully specified; cyclic constrained); experiment: peptide microarray
T10 peptide: ARGWVTDGFSSFK
Outline: as §3

[11] = target: T11, ApoC3 peptide … K51G (human, thioether (positions not given here); also: cyclic constrained); experiment: peptide microarray
T11 peptide: ARGWVTDGFSSLG
Outline: as §3

[12] = target: T12, ApoC3 peptide … F47H (human, not fully specified (bridges); also: cyclic constrained); experiment: peptide microarray
T12 peptide: ARGWVTDGHSSLK
Outline: as §3

[13] = target: T13, ApoC3 peptide … G46I (human, not fully specified (bridges); also: cyclic constrained); experiment: peptide microarray
T13 peptide: ARGWVTDIFSSLK
Outline: as §3

[14] = target: T14, ApoC3 peptide … R40K (human, not fully specified (bridges); also: cyclic constrained); experiment: peptide microarray
T14 peptide: AKGWVTDGFSSLK
Outline: as §3

[15] = target: T15, ApoC3 peptide … S48L (human, not fully specified (bridges); also: cyclic constrained); experiment: peptide microarray
T15 peptide: ARGWVTDGFLSLK
Outline: as §3

[16] = target: T16, ApoC3 peptide … R40M (human, not fully specified (bridges); also: cyclic constrained); experiment: peptide microarray
T16 peptide: AMGWVTDGFSSLK
Outline: as §3

[17] = target: T17, ApoC3 peptide … G41M (human, also: cyclic constrained); experiment: peptide microarray
T17 peptide: ARMWVTDGFSSLK
Outline: as §3

[18] = target: ApoC3 peptide … S48M (human, cyclic constrained); experiment: peptide microarray
Outline: as §3

[19] = target: T18, ApoC3 peptide … F47N (human, not fully specified (bridges); also: cyclic constrained); experiment: peptide microarray
T18 peptide: ARGWVTDGNSSLK
Outline: as §3

[20] = target: T19, ApoC3 peptide … S49P (human, cyclic constrained); experiment: peptide microarray
T19 peptide: ARGWVTDGFSPLK
Outline: as §3

[21] = target: T20, ApoC3 peptide … R40Q (human, not fully specified (bridges); also: cyclic constrained); experiment: peptide microarray
T20 peptide: AQGWVTDGFSSLK
Outline: as §3

[22] = target: T21, ApoC3 peptide … K51R (human, not fully specified; cyclic constrained); experiment: peptide microarray
T21 peptide: ARGWVTDGFSSLR
Outline: as §3

[23] = target: T22, ApoC3 peptide … G41S (human, also: cyclic constrained); experiment: peptide microarray
T22 peptide: ARSWVTDGFSSLK
Outline: as §3

[24] = target: T23, ApoC3 peptide … G46S (human, thioether (positions not given here); also: cyclic constrained); experiment: peptide microarray
T23 peptide: ARGWVTDSFSSLK
Outline: as §3

[25] = target: T24, ApoC3 peptide … L50T (human, not fully specified (bridges); also: cyclic constrained); experiment: peptide microarray
T24 peptide: ARGWVTDGFSSTK
Outline: as §3

[26] = target: T25, ApoC3 peptide … W42V (human, not fully specified (bridges); also: cyclic constrained); experiment: peptide microarray
T25 peptide: ARGVVTDGFSSLK
Outline: as §3

[27] = target: T26, ApoC3 peptide … A39W (human, not fully specified (bridges); also: cyclic constrained); experiment: peptide microarray
T26 peptide: WRGWVTDGFSSLK
Outline: as §3

[28] = target: T27, ApoC3 peptide … D45W (human, cyclic constrained); experiment: peptide microarray
T27 peptide: ARGWVTWGFSSLK
Outline: as §3

[29] = target: T28, ApoC3 peptide … G46W (human, thioether (positions not given here); also: cyclic constrained); experiment: peptide microarray
T28 peptide: ARGWVTDWFSSLK
Outline: as §3

% of binding to wild-type peptide [1]: 0% | % of binding to wild-type peptide [2]: 74.1% | % of binding to wild-type peptide [3]: 0%
B1: Llama antibody 5E5 (antibody, V domains shown)
VH: QLQLVESGGGLVQPGGSLRLSCAASGFTFGTYSMRWVRQVPRKALEWVSSISTDGGGTAYRDSVKGRFTISRDNAKNTLYLQMNNLKPEDTAIYYCVIAGYSDWGQGTQVTVSS
VL: ATMLTQSPGSLSVVPGESASISCKTSQGLVHSDGKTYFYWFLQKPGQSPQQLIYQVSNRASGVPDRFTGSGSGTDFTLKISGVKAEDAGVYYCAQGTYYPHTFGSGTRLEIK
notes: detected with goat anti-human IgG (Fc); also called mAb 5E5

% of binding to wild-type peptide [4]: 0% | % of binding to wild-type peptide [5]: 10.1% | % of binding to wild-type peptide [6]: 11.2% | % of binding to wild-type peptide [7]: 28.1% | % of binding to wild-type peptide [8]: 0% | % of binding to wild-type peptide [9]: 0% | % of binding to wild-type peptide [10]: 56.6% | % of binding to wild-type peptide [11]: 5.77% | % of binding to wild-type peptide [12]: 0% | % of binding to wild-type peptide [13]: 0% | % of binding to wild-type peptide [14]: 58.1% | % of binding to wild-type peptide [15]: 19.6% | % of binding to wild-type peptide [16]: 69.6% | % of binding to wild-type peptide [17]: 18.7% | % of binding to wild-type peptide [18]: 121% | % of binding to wild-type peptide [19]: 0.06% | % of binding to wild-type peptide [20]: 0% | % of binding to wild-type peptide [21]: 85.8% | % of binding to wild-type peptide [22]: 57.4% | % of binding to wild-type peptide [23]: 18.7% | % of binding to wild-type peptide [24]: 0% | % of binding to wild-type peptide [25]: 0% | % of binding to wild-type peptide [26]: 48.3% | % of binding to wild-type peptide [27]: 59.4% | % of binding to wild-type peptide [28]: 0.06% | % of binding to wild-type peptide [29]: 0%
B2: anti-ApoC3 antibody 14C7 (antibody, V domains shown)
VH: QVQVQESGPGLVKPSQTLSLTCTVSGGSITTNSYYWSWIRQPPGKGLEWMGAIDYSGDTYYSPSLKSRTSISRDTSKNQFTLQLTSVTPEDTAVYYCVSRIPTGEYWGQGTQVTVSS
VL: QTVVTQEPSLSVSPGGTVTLTCGLNSGSVTSSNYPDWYQQTPGQAPRLLIYNTNSRHSGVPSRFSGSISGNKAALTITGAQPEDEADYYCALYMGSDSVVFGGGTHLTVL
notes: it was detected with goat anti-human IgG (Fc); also called mAb 14C7; llama antibody 14C7

— patent US20190241648A1 (STATEN BIOTECHNOLOGY B V, published 2019)
